Measured values as given in patent publication US20260232732A1 (FUNDACI INSTITUT DE RECERCA CONTRA LA LEUC MIA JOSEP …, published 2026).
One block for each binder: values may come before it. Where no end group is shown, it is not given here. The star is where a group is joined. Biotin = O=C1N[C@H]2[C@H](CS[C@H]2CCCCC(=O)*)N1

Legend:
[1] = molecular target: T1, Peptide 3-BSA (SSMEDYVNFN-C conjugated to BSA) (human); experiment: ELISA; Ab 1 ug/mL; repII
T1 peptide: SSMEDYVNFNC(BSA)
Protocol: (§1) In brief, plates with each non-conjugated peptide (50 μg/mL) or BSA-conjugated peptide (5 μg/mL) were coated in 0.58M carbonate-bicarbonate buffer pH9.5, 100 μL/well, at 4° C. […] After washing, wells were incubated with the 3, 3′,5,5′-Tetramethylbenzidine (TMB) HRP substrate and reactions were stopped with 2M HCl and OD450 was recorded.

[2] = molecular target: T2, Peptide 4-BSA (SMEDYVNFNF-C conjugated to BSA) (human); experiment: ELISA; Ab 1 ug/mL; repII
T2 peptide: SMEDYVNFNFC(BSA)
Protocol: as §1

[3] = molecular target: T3, Peptide 1, non-conjugated (MADDYGSEST-C) (human); experiment: ELISA; Ab 1 ug/mL; repII
T3 construct: With the extra C-terminal Cys
T3 peptide: MADDYGSESTC
Protocol: as §1

[4] = molecular target: T4, Peptide 2, non-conjugated (GSESTSSMED-C) (human); experiment: ELISA; Ab 1 ug/mL; repII
T4 construct: With the extra C-terminal Cys
T4 peptide: GSESTSSMEDC
Protocol: as §1

[5] = molecular target: T5, Peptide 3, non-conjugated (SSMEDYVNFN-C) (human); experiment: ELISA; Ab 1 ug/mL; repII
T5 construct: With the extra C-terminal Cys
T5 peptide: SSMEDYVNFNC
Protocol: as §1

[6] = molecular target: T6, Peptide 4, non-conjugated (SMEDYVNFNF-C) (human); experiment: ELISA; Ab 1 ug/mL; repII
T6 construct: With the extra C-terminal Cys
T6 peptide: SMEDYVNFNFC
Protocol: as §1

[7] = molecular target: T7, BSA (negative control coating) (bovine, UniProt P02769 25-607); experiment: ELISA; Ab 1 ug/mL; repII
T7 construct: also called Negative control BSA
Protocol: as §1

[8] = molecular target: T8, antigen peptide-BSA (immunisation peptide #1 MADDYGSESTSSMEDYVNFNF-C conjugated to BSA) (human, extra C-terminal Cys conjugated to BSA); experiment: ELISA; Ab 1 ug/mL; repII
T8 construct: also called Positive control antigen peptide-BSA; MADDY peptide
T8 peptide: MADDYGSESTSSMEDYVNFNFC
Protocol: as §1

[9] = molecular target: T9, Peptide 1-BSA (MADDYGSEST-C conjugated to BSA) (human); experiment: ELISA; Ab 1 ug/mL; repII
T9 peptide: MADDYGSESTC(BSA)
Protocol: as §1

[10] = molecular target: T10, Peptide 2-BSA (GSESTSSMED-C conjugated to BSA) (human); experiment: ELISA; Ab 1 ug/mL; repII
T10 peptide: GSESTSSMEDC(BSA)
Protocol: as §1

[11] = molecular target: T2, Peptide 4-BSA (SMEDYVNFNF-C conjugated …); experiment: ELISA; Ab 0.03125 ug/mL; repI
Protocol: as §1

[12] = molecular target: T3, Peptide 1, non-conjugated (MADDYGSEST-C); experiment: ELISA; Ab 0.03125 ug/mL; repI
Protocol: as §1

[13] = molecular target: T8, antigen peptide-BSA (immunisation …); experiment: ELISA; Ab 0.03125 ug/mL; repI
Protocol: as §1

[14] = molecular target: T10, Peptide 2-BSA (GSESTSSMED-C conjugated …); experiment: ELISA; Ab 0.03125 ug/mL; repI
Protocol: as §1

[15] = molecular target: T11, biotin-peptide TSSMEDYVNF (human); experiment: ELISA biotin-peptide; scFv 5 ug/mL; repII
T11 peptide: Biotin-TSSMEDYVNF
Protocol: (§2) The peptides were synthesized naked or with a N-terminal Biotin modification with a purity of >98%. All four scFvs were verified by ELISA that can be detected with anti-His antibodies. ELISA was performed for scFv-peptide binding validation. Briefly, naked peptides were coated (50 μg/mL) in 0.58M carbonate-bicarbonate buffer pH9.5, 100 μL/well, 4° C. O/N. Then after blocking (3% BSA-PBS, 300 μL/well 37° C. 1.5 h) and washing (PBS+Tween-20 0.05% v/v (0.05% PBST), wells were incubated with each purified scFv antibody at concentration of 1 μg/mL in PBS at 37° C. 1 h. After washing (0.05% PBST), wells were incubated with secondary antibodies (goat anti-His IgG-HRP) in PBS, 37° C., 30 min. After washing, and incubation with TMB substrate, reactions were stopped with 2M HCl and reading was quantified at OD450.
(§3) ELISA with biotin-conjugated peptides (5 μg/mL) was performed very similar to described above with minor modifications.
(§4) A full curve ELISA was performed for each positive scFv/biotin-peptide pair in order to confirm previous results. Tables 15-17 show ELISA results of the dose-dependent full curve for each positive peptide with scFv “CCR9_HUM”, “Comp-2” and “Comp-3”, respectively.

[16] = molecular target: T12, biotin-peptide SSMEDYVNFN (human); experiment: ELISA biotin-peptide; scFv 5 ug/mL; repII
T12 peptide: Biotin-SSMEDYVNFN
Protocol: as §2, §3, §4

[17] = molecular target: T13, biotin-peptide SMEDYVNFNF (human); experiment: ELISA biotin-peptide; scFv 5 ug/mL; repII
T13 peptide: Biotin-SMEDYVNFNF
Protocol: as §2, §3, §4

[18] = molecular target: T14, biotin-peptide MEDYVNFNFT (human); experiment: ELISA biotin-peptide; scFv 5 ug/mL; repII
T14 peptide: Biotin-MEDYVNFNFT
Protocol: as §2, §3, §4

[19] = molecular target: T11, biotin-peptide TSSMEDYVNF; experiment: ELISA biotin-peptide; scFv 0.625 ug/mL; repI
Protocol: as §2, §3, §4

[20] = molecular target: T12, biotin-peptide SSMEDYVNFN; experiment: ELISA biotin-peptide; scFv 0.625 ug/mL; repI
Protocol: as §2, §3, §4

[21] = molecular target: T13, biotin-peptide SMEDYVNFNF; experiment: ELISA biotin-peptide; scFv 0.625 ug/mL; repI
Protocol: as §2, §3, §4

[22] = molecular target: T14, biotin-peptide MEDYVNFNFT; experiment: ELISA biotin-peptide; scFv 0.625 ug/mL; repI
Protocol: as §2, §3, §4

[23] = molecular target: T11, biotin-peptide TSSMEDYVNF; experiment: ELISA biotin-peptide; scFv 0.15625 ug/mL; repI
Protocol: as §2, §3, §4

[24] = molecular target: T12, biotin-peptide SSMEDYVNFN; experiment: ELISA biotin-peptide; scFv 0.15625 ug/mL; repI
Protocol: as §2, §3, §4

[25] = molecular target: T13, biotin-peptide SMEDYVNFNF; experiment: ELISA biotin-peptide; scFv 0.15625 ug/mL; repI
Protocol: as §2, §3, §4

[26] = molecular target: T14, biotin-peptide MEDYVNFNFT; experiment: ELISA biotin-peptide; scFv 0.15625 ug/mL; repI
Protocol: as §2, §3, §4

T7 sequence (P02769 25-607 limits assumed): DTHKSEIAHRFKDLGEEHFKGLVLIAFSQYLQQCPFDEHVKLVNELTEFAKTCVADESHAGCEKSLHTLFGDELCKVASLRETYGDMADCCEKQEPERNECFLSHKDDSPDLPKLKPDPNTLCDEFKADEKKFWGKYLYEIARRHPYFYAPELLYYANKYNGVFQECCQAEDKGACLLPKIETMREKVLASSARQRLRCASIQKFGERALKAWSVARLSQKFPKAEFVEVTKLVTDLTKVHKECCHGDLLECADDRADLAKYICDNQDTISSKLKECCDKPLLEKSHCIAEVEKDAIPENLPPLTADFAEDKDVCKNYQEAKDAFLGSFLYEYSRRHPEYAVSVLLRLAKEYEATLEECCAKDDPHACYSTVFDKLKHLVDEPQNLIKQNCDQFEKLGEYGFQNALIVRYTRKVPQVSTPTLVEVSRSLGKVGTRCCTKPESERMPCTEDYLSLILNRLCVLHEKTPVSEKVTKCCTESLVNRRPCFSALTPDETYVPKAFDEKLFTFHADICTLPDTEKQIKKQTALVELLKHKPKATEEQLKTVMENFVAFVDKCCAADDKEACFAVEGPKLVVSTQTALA

- OD450 [1]: 2.16 OD
- OD450 [2]: 2.75 OD
- OD450 [3]: 0.02 OD
- OD450 [4]: 0.02 OD
- OD450 [5]: 2.1 OD
- OD450 [6]: 2.46 OD
- OD450 [7]: 0.02 OD
- OD450 [8]: 2.68 OD
- OD450 [9]: 0.03 OD
- OD450 [10]: 0.03 OD
- OD450 [11]: 1.44 OD
- OD450 [12]: 0.01 OD
- OD450 [13]: 1.28 OD
- OD450 [14]: 0.01 OD
B1: anti-CCR9 antibody clone 115 (murine, from hybridoma #115) (antibody, V domains shown)
VH: QVQLKQSGPELVKPGTSVRVSCTASGYSFTDYIIYWVKQSHGRSLEWIGYIDPNNYNTRYSQKFKGKATLTVDKSSTSAFMHLNSLTSDDSAVYYCARDVYWGQGTTLTVSS
VL: DVVMTQTPLSLTVSLGDQASISCRSSQSLVHSNGKTYLQWYLQKPGQSPKLLIYKVSNRFSGVPDRFSGSGSGTDFTLKISRVEAEDLGVYFCAQSTHVWTFGGGTKLEIKR
notes: Mouse IgG1

- OD450 [15]: 1.38 OD
- OD450 [16]: 1.82 OD
- OD450 [17]: 1.79 OD
- OD450 [18]: 1.72 OD
- OD450 [19]: 0.78 OD
- OD450 [20]: 1.73 OD
- OD450 [21]: 1.71 OD
- OD450 [22]: 1.53 OD
- OD450 [23]: 0.22 OD
- OD450 [24]: 1.64 OD
- OD450 [25]: 1.63 OD
- OD450 [26]: 1.41 OD
B2: CCR9_HUM2 scFv (humanized anti-CCR9 scFv, SEQ ID NO: 17 with C-terminal 6xHis tag) (scFv)
scFv: QVQLVQSGAEVKKPGASVKVSCTASGYSFTDYIIYWVKQAHGQSLEWMGYIDPNNYNTRYSQKFQGKVTITVDKSSTSAYMELNSLTSDDTAVYYCARDVYWGQGTTVTVSSGGGGSGGGGSGGGGSGGGGSDVVMTQTPLSLSVTPGQPASISCRSSQSLVHSNGKTYLQWYLQKPGQSPKLLIYKVSNRFSGVPDRFSGSGSGTDFTLKISRVEAEDVGVYFCAQSTHVWTFGGGTKVEIKRAHHHHHH
